Data: patent US20240058465A1 (SUTRO BIOPHARMA, published 2024)
Substitutions are numbered along the chain they refer to.

B1: SRP1987-C05 parent (antibody, IgG1, V domains shown)
VH: EVQLVESGGGLVQPGGSLRLSCAASGFNISDYDIHWVRQAPGKGLEWVGGIDPDDGSTDYADSVKGRFTISADTSKNTAYLQMNSLRAEDTAVYYCARDYGVFDYWGQGTLVTVSS
VL: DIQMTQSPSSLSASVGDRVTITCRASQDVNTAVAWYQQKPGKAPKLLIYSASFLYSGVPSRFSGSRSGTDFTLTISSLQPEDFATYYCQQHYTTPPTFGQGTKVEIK
notes: IgG1 with trastuzumab LC; HIS- and FLAG-tagged; cell-free expressed
B2: SRP2188-F03 (antibody, IgG1, V domains shown)
VH: B1 VH with G49S
VL: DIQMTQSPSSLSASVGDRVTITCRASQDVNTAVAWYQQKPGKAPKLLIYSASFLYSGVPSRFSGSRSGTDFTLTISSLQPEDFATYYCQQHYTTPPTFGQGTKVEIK
notes: as for B1
B3: SRP2188-B08 (antibody, IgG1, V domains shown)
VH: B1 VH with S30D, D31S, G50W, D52N, S57D, D59F, N84D
VL: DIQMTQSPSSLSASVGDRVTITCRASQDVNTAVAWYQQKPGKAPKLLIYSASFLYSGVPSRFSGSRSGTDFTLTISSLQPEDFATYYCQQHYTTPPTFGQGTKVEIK
notes: as for B1
B4: SRP2188-D06 (antibody, IgG1, V domains shown)
VH: B1 VH with S30R, D54N, S57A
VL: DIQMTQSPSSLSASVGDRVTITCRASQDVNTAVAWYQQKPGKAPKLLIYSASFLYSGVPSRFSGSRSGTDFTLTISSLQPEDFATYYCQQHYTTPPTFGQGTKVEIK
notes: as for B1
B5: SRP2188-E10 (antibody, IgG1, V domains shown)
VH: B1 VH with S30G, Y32F, D54R, S57A
VL: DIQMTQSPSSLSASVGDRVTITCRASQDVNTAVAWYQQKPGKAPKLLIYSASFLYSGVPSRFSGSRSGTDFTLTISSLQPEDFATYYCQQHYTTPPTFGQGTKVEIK
notes: as for B1
B6: SRP2188-C09 (antibody, IgG1, V domains shown)
VH: B1 VH with S30N, D31S, G50W, D52N, D54H, S57D, D59Y, K65T
VL: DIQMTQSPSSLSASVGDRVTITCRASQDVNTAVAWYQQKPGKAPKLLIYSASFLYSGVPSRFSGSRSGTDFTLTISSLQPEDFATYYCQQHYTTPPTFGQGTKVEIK
notes: as for B1
B7: SRP2188-E02 (antibody, IgG1, V domains shown)
VH: B1 VH with S30P, D33E, D52E, D54H, F103Y
VL: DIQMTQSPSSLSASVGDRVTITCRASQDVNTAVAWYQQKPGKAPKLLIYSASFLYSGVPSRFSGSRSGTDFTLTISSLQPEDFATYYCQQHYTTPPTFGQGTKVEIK
notes: as for B1
B8: SRP2188-B07 (antibody, IgG1, V domains shown)
VH: B1 VH with S30H, D31S, Y32H, G50W, D52N, S57D, D59Y, T69A, Q108R
VL: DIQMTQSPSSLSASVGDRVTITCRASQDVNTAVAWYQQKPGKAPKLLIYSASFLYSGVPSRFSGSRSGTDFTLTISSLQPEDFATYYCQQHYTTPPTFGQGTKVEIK
notes: as for B1
B9: SRP2188-B05 (antibody, IgG1, V domains shown)
VH: B1 VH with S30P, G50V, S57W, D59H
VL: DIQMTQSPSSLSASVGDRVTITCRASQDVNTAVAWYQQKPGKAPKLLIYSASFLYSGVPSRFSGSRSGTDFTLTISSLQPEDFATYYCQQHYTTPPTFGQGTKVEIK
notes: as for B1
B10: SRP2188-D04 (antibody, IgG1, V domains shown)
VH: B1 VH with D54A, F103Y
VL: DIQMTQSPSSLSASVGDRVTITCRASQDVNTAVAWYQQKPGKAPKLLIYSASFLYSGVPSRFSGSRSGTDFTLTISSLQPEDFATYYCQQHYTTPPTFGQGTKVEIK
notes: IgG1 with trastuzumab LC; HIS- and FLAG-tagged; cell-free expressed in the screen; also called mAb 42
B11: SRP2188-C07 (antibody, IgG1, V domains shown)
VH: B1 VH with S30V, D31R, G50W, D52N, S57D, D59Y
VL: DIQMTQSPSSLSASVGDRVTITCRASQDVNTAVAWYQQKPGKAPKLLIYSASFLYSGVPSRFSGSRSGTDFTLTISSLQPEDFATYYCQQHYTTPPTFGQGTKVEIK
notes: as for B1
B12: SRP2188-B03 (antibody, IgG1, V domains shown)
VH: B1 VH with D31S, G50A, D54G, S57A, F103Y
VL: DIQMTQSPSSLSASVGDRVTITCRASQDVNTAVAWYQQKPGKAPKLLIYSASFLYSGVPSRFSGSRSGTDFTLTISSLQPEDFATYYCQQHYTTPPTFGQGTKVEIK
notes: as for B1
B13: SRP2188-A03 (antibody, IgG1, V domains shown)
VH: B1 VH with S30R, G50W, D52N, S57D, D59Y
VL: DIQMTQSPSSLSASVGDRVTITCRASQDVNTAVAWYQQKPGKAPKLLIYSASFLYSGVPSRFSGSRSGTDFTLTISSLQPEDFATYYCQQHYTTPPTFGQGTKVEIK
notes: as for B1
B14: SRP2188-D02 (antibody, IgG1, V domains shown)
VH: B1 VH with D54E, S57A
VL: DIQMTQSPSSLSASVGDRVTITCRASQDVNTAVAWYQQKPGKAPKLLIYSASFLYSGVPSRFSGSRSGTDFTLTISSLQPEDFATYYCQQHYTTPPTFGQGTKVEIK
notes: as for B1
B15: SRP2188-F09 (antibody, IgG1, V domains shown)
VH: B1 VH with G10D, S30R, G49S, G50A, D54N
VL: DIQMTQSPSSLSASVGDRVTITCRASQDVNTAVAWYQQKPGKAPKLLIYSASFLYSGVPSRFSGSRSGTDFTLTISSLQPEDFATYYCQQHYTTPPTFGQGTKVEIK
notes: as for B1
B16: SRP2188-C02 (antibody, IgG1, V domains shown)
VH: B1 VH with S30E, D31R, G50W, D52N, S57D, D59Y, M83T, N84K
VL: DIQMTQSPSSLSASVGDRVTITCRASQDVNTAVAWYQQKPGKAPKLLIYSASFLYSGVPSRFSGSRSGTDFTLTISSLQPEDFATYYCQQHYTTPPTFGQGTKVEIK
notes: as for B1
B17: SRP2188-D10 (antibody, IgG1, V domains shown)
VH: B1 VH with G50R, D54R, S57A
VL: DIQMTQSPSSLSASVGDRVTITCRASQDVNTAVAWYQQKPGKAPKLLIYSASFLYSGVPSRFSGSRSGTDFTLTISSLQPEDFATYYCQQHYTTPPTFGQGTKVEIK
notes: as for B1
B18: SRP2188-D01 (antibody, IgG1, V domains shown)
VH: B1 VH with S30K, D31S, G50W, D52N, D54Y, S57D, D59Y
VL: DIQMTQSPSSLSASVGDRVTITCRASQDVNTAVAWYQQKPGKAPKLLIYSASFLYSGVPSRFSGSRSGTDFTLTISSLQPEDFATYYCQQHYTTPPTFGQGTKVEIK
notes: as for B1
B19: SRP2188-A07 (antibody, IgG1, V domains shown)
VH: B1 VH with S30H, D31H, G50W, D52N, S57D, D59Y
VL: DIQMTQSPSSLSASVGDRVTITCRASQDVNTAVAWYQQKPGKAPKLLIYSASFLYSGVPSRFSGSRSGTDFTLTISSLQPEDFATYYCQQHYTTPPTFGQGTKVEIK
notes: as for B1
B20: SRP2188-A05 (antibody, IgG1, V domains shown)
VH: B1 VH with S30K, D31R, G50W, D52N, S57D, D59Y
VL: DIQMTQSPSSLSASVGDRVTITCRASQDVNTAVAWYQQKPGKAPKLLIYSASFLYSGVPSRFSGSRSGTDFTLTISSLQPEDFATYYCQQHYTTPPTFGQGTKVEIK
notes: as for B1
B21: SRP2188-F04 (antibody, IgG1, V domains shown)
VH: B1 VH with G10S, Y32F, G49S, S57A
VL: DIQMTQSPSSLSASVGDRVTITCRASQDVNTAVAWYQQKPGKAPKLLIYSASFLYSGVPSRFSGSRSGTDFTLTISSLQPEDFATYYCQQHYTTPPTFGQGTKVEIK
notes: as for B1
B22: SRP2188-A09 (antibody, IgG1, V domains shown)
VH: B1 VH with S30I, D31N, G50W, D52N, S57D, D59Y
VL: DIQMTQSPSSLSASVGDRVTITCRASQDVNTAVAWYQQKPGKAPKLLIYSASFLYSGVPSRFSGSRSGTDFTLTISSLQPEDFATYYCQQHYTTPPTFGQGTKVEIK
notes: as for B1
B23: SRP2188-C03 (antibody, IgG1, V domains shown)
VH: B1 VH with S30N, D31S, G50W, D52N, S57D, D59Y
VL: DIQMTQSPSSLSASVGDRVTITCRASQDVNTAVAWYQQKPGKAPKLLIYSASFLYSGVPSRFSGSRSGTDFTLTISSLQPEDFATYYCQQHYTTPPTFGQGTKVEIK
notes: as for B1
B24: SRP2188-G01 (antibody, IgG1, V domains shown)
VH: B1 VH with D54N, S57A
VL: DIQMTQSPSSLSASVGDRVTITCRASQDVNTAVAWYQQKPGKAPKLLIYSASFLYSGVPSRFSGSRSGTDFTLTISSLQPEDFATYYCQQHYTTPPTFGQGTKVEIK
notes: as for B1
B25: SRP2188-B01 (antibody, IgG1, V domains shown)
VH: B1 VH with S30N, D31S, Y32H, G50W, D52N, S57D, D59Y, F103L
VL: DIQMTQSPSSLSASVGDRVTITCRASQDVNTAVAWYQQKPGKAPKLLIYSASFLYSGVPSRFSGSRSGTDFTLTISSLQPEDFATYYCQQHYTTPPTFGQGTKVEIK
notes: as for B1
B26: SRP2188-D03 (antibody, IgG1, V domains shown)
VH: B1 VH with D54H, F103Y
VL: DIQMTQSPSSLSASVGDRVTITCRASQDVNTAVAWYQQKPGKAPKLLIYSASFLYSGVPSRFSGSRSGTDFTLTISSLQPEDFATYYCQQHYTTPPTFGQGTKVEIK
notes: as for B1
B27: SRP2188-B04 (antibody, IgG1, V domains shown)
VH: B1 VH with S30T, D31W, G50W, D52N, S57D, D59Y
VL: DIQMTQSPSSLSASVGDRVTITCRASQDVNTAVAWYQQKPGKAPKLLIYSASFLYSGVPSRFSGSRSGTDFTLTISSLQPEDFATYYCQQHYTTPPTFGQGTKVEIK
notes: as for B1
B28: SRP2188-D07 (antibody, IgG1, V domains shown)
VH: B1 VH with Y32F, G49V, D54T, S57A
VL: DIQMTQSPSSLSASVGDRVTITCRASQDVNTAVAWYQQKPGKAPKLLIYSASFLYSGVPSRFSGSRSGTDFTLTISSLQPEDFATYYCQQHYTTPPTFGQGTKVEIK
notes: as for B1

Target: T1, human ROR1 (hROR1) expressed on cells (human, UniProt Q01973 30-937)
T1 construct: Mino cells are the target positive cells of the killing assay; also called receptor tyrosine kinase like orphan receptor 1; HCT 116-hROR1
Assay: flow cytometry, HCT116-hROR1 cells

Binder | Bmax (MFI) | Kd [nM]
B1 | 9500 | 0.04
B2 | 10100 | 0.04
B3 | 9210 | 0.09
B4 | 9810 | 0.04
B5 | 9120 | 0.04
B6 | 9080 | 0.03
B7 | 10500 | 0.07
B8 | 8760 | 0.07
B9 | 8510 | 0.03
B10 | 9690 | 0.04
B11 | 9160 | 0.04
B12 | 9560 | 0.04
B13 | 9700 | 0.03
B14 | 10000 | 0.04
B15 | 8760 | 0.02
B16 | 9920 | 0.13
B17 | 9070 | 0.05
B18 | 8940 | 0.04
B19 | 9330 | 0.07
B20 | 9030 | 0.04
B21 | 10000 | 0.03
B22 | 9380 | 0.03
B23 | 9600 | 0.03
B24 | 9750 | 0.05
B25 | 9470 | 0.04
B26 | 9110 | 0.04
B27 | 9660 | 0.05
B28 | 8990 | 0.04

Target: T2, human ROR1-ECD (human, UniProt Q01973 30-406)
T2 construct: Bought protein; also called hROR1; ROR1-extracellular domain
Assay: SPR (Biacore), antibody captured by anti-Fc, human ROR1-ECD analyte
Description: Anti-Fc polyclonal antibodies were immobilized onto a CMS chip (GE Life Sciences) using amine coupling chemistry (from Amine Coupling Kit, GE Life Sciences). The immobilization steps were carried out at a flow rate of 25 μL/min in 1×HBS-EP+buffer (GE Life Sciences; 10× Stock diluted before use). The sensor surfaces were activated for 7 min with a mixture of NHS (0.05 M) and EDC (0.2 M). The Anti-Fc antibodies were injected over all 4 flow cells at a concentration of 25 ug/ml in 10 mM sodium acetate, pH 4.5, for 7 min. Ethanolamine (1 M, pH 8.5) was injected for 7 min to block any remaining activated groups.
Off-rate and kinetic binding experiments were performed at 25° C. using 1×HBS-EP+buffer. Test and control antibodies were injected over the anti-Fc surface at concentrations of 5-10 μg/mL for 12 seconds at a flow rate of 10 μL/min on flow cells 2, 3 and 4, followed by a buffer wash for 30 seconds at the same flow rate. […] After capturing ligand (antibody) on the anti-Fc surface, the analyte (hROR1, Fz or Kr domains, Acro Biosystems, Delaware) was bound for 180 seconds, followed by a 600 second dissociation phase at a flow rate of 50 μL/min. Between each ligand capture and analyte binding cycle, regeneration was carried out using 2 injections of 10 mM Glycine pH 2.0 for 30 seconds at 30 μL/min, followed by a 30 second buffer wash step.

Binder | Kd [nM] | koff [s⁻¹] | kon [M⁻¹ s⁻¹]
B1 | 0.694 | 0.000681 | 981000
B4 | 0.628 | 0.000563 | 897000
B6 | 0.504 | 0.00042 | 833000
B8 | 0.221 | 0.000194 | 880000
B9 | 0.757 | 0.000671 | 887000
B10 | 0.426 | 0.000423 | 994000
B12 | 0.346 | 0.000334 | 965000
B13 | 0.508 | 0.000389 | 766000
B19 | 0.609 | 0.000406 | 666000
B20 | 0.227 | 0.000243 | 1.07e+06
B22 | 0.424 | 0.000401 | 944000
B26 | 0.838 | 0.00055 | 656000

Target: T1, human ROR1 (hROR1) expressed on cells
Assay: cell-based or functional assay

Binder | Mino Nb-PBD, drug-conjugated 2° antibody Cell Killing IC50 [nM] | Mino Nb-PBD, drug-conjugated 2° antibody Cell Killing Span [%]
B1 | 0.00077 | 68
B2 | 0.0011 | 71
B3 | 0.0062 | 71
B4 | 0.0015 | 69
B5 | 0.00099 | 73
B6 | 0.00091 | 71
B7 | 0.00075 | 76
B8 | 0.0014 | 72
B9 | 0.0011 | 70
B10 | 0.0014 | 69
B11 | 0.00085 | 71
B12 | 0.0017 | 71
B13 | 0.001 | 71
B14 | 0.0014 | 72
B15 | 0.0018 | 59
B16 | 0.01 | 73
B17 | 0.001 | 65
B18 | 0.0011 | 72
B19 | 0.00048 | 75
B20 | 0.001 | 71
B21 | 0.00072 | 71
B22 | 0.00088 | 71
B23 | 0.0011 | 71
B24 | 0.0015 | 61
B25 | 0.00069 | 75
B26 | 0.00089 | 72
B27 | 0.0012 | 73
B28 | 0.0017 | 70
